Measurements: publication PMC10397247

Assays:
APC4100-AA = target: T1, APC4100-AA; experiment: two-hybrid library CCmax; settings: mean of both orientations;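 note: natural log of median RNA to DNA barcode read ratio; higher means stronger binding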
T1 chain: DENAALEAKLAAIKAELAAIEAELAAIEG

APC4336-AA = target: T2, APC4336-AA; experiment: two-hybrid library CCmax; settings: mean of both orientations;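 note: natural log of median RNA to DNA barcode read ratio; higher means stronger binding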
T2 chain: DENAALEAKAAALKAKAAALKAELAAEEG

APC5009-AA = target: T3, APC5009-AA; experiment: two-hybrid library CCmax; settings: mean of both orientations;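 note: natural log of median RNA to DNA barcode read ratio; higher means stronger binding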
T3 chain: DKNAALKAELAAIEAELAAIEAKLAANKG

APC2811-AA = target: T4, APC2811-AA; experiment: two-hybrid library CCmax; settings: mean of both orientations;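 note: natural log of median RNA to DNA barcode read ratio; higher means stronger binding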
T4 chain: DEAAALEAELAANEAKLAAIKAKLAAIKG

APC9141-AA = target: T5, APC9141-AA; experiment: two-hybrid library CCmax; settings: mean of both orientations;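 note: natural log of median RNA to DNA barcode read ratio; higher means stronger binding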
T5 chain: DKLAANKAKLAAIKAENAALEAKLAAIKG

APC8401-AA = target: T6, APC8401-AA; experiment: two-hybrid library CCmax; settings: mean of both orientations;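 note: natural log of median RNA to DNA barcode read ratio; higher means stronger binding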
T6 chain: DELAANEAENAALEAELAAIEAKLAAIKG

APC9806-AA = target: T7, APC9806-AA; experiment: two-hybrid library CCmax; settings: mean of both orientations
T7 chain: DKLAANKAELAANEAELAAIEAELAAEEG

APC2981-AA = target: T8, APC2981-AA; experiment: two-hybrid library CCmax; settings: mean of both orientations
T8 chain: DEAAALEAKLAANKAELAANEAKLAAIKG

APC2474-AA = target: T9, APC2474-AA; experiment: two-hybrid library CCmax; settings: mean of both orientations
T9 chain: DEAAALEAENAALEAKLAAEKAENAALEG

APC2724-AA = target: T10, APC2724-AA; experiment: two-hybrid library CCmax; settings: mean of both orientations
T10 chain: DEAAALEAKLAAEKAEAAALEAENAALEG

APC3265-AA = target: T11, APC3265-AA; experiment: two-hybrid library CCmax; settings: mean of both orientations
T11 chain: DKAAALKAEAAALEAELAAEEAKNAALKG

APC5531-AA = target: T12, APC5531-AA; experiment: two-hybrid library CCmax; settings: mean of both orientations
T12 chain: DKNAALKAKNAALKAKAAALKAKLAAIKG

APC2375-AA = target: T13, APC2375-AA; experiment: two-hybrid library CCmax
T13 chain: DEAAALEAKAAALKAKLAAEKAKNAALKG

APC9182-AA = target: T14, APC9182-AA; experiment: two-hybrid library CCmax; settings: mean of both orientations
T14 chain: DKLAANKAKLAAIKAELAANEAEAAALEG

APC3323-AA = target: T15, APC3323-AA; experiment: two-hybrid library CCmax; settings: mean of both orientations
T15 chain: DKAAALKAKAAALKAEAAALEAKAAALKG

APC7524-AA = target: T16, APC7524-AA; experiment: two-hybrid library CCmax; settings: mean of both orientations
T16 chain: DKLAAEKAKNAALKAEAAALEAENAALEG

APC9291-AA = target: T17, APC9291-AA; experiment: two-hybrid library CCmax; settings: mean of both orientations
T17 chain: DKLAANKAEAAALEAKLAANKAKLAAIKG

APC3354-AA = target: T18, APC3354-AA; experiment: two-hybrid library CCmax; settings: mean of both orientations
T18 chain: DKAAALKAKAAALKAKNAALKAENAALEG

APC2543-AA = target: T19, APC2543-AA; experiment: two-hybrid library CCmax; settings: mean of both orientations
T19 chain: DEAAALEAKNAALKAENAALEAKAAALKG

APC3881-AA = target: T20, APC3881-AA; experiment: two-hybrid library CCmax; settings: mean of both orientations
T20 chain: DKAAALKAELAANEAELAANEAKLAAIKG

APC542-AA = target: T21, APC542-AA; experiment: two-hybrid library CCmax; settings: mean of both orientations
T21 chain: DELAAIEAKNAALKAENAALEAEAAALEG

APC6088-AA = target: T22, APC6088-AA; experiment: two-hybrid library CCmax; settings: mean of both orientations
T22 chain: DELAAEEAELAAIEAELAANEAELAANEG

APC8516-AA = target: T23, APC8516-AA; experiment: two-hybrid library CCmax; settings: mean of both orientations
T23 chain: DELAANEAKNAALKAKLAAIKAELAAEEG

APC2556-AA = target: T24, APC2556-AA; experiment: two-hybrid library CCmax; settings: mean of both orientations
T24 chain: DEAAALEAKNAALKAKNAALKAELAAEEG

4H906-bN = target: T25, 4H906-bN; experiment: two-hybrid library CCNG1
T25 chain: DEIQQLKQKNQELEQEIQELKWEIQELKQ

4H1804-bN = target: T26, 4H1804-bN; experiment: two-hybrid library CCNG1
T26 chain: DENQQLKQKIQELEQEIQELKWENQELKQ

4H850-bN = target: T27, 4H850-bN; experiment: two-hybrid library CCNG1
T27 chain: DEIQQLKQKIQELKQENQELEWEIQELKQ

4H3414-bN = target: T28, 4H3414-bN; experiment: two-hybrid library CCNG1
T28 chain: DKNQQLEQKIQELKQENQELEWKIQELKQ

4H3817-bN = target: T29, 4H3817-bN; experiment: two-hybrid library CCNG1
T29 chain: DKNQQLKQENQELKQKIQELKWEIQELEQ

4H570-bN = target: T30, 4H570-bN; experiment: two-hybrid library CCNG1
T30 chain: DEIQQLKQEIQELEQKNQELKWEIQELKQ

4H3638-bN = target: T31, 4H3638-bN; experiment: two-hybrid library CCNG1
T31 chain: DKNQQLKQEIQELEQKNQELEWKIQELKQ

4H1985-bN = target: T32, 4H1985-bN; experiment: two-hybrid library CCNG1
T32 chain: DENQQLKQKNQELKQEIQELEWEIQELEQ

4H3172-bN = target: T33, 4H3172-bN; experiment: two-hybrid library CCNG1
T33 chain: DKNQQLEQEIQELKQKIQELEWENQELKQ

4H619-bN = target: T34, 4H619-bN; experiment: two-hybrid library CCNG1
T34 chain: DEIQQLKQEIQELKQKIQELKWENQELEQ

4H3129-bN = target: T35, 4H3129-bN; experiment: two-hybrid library CCNG1
T35 chain: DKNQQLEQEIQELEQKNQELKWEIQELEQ

4H3974-bN = target: T36, 4H3974-bN; experiment: two-hybrid library CCNG1
T36 chain: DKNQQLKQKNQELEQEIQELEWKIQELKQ

4H3631-bN = target: T37, 4H3631-bN; experiment: two-hybrid library CCNG1
T37 chain: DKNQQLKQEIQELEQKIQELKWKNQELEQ

4H584-bN = target: T38, 4H584-bN; experiment: two-hybrid library CCNG1
T38 chain: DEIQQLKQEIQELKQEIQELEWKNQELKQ

Q7-AA = target: T39, Q7-AA; experiment: two-hybrid library CCmax; settings: mean of both orientations
T39 chain: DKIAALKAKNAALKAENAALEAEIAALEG

Q8-AA = target: T40, Q8-AA; experiment: two-hybrid library CCmax; settings: mean of both orientations
T40 chain: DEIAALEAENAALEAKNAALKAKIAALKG

4H491-bH = target: T41, 4H491-bH; experiment: two-hybrid library CCNG1
T41 chain: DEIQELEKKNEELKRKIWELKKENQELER

4H496-bH = target: T42, 4H496-bH; experiment: two-hybrid library CCNG1
T42 chain: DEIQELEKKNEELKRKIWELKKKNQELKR

4H3632-bH = target: T43, 4H3632-bH; experiment: two-hybrid library CCNG1
T43 chain: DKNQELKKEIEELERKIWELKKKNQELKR

4H48-bH = target: T44, 4H48-bH; experiment: two-hybrid library CCNG1
T44 chain: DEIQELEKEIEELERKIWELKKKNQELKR

4H342-bH = target: T45, 4H342-bH; experiment: two-hybrid library CCNG1
T45 chain: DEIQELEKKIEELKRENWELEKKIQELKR

DEAAALEAKAAALKAKLAAEKAKNAALKG [APC2375-AA]
interaction score (APC4100-AA): -1.47
interaction score (APC4336-AA): -1.65
interaction score (APC5009-AA): -0.913
interaction score (APC2811-AA): -1.74
interaction score (APC9141-AA): -1.6
interaction score (APC8401-AA): -0.731
interaction score (APC9806-AA): -1.72
interaction score (APC2981-AA): -1.45
interaction score (APC2474-AA): -1.59
interaction score (APC2724-AA): -1.62
interaction score (APC3265-AA): -1.44
interaction score (APC5531-AA): -1.77
interaction score (APC2375-AA): -1.68
interaction score (APC9182-AA): -1.83
interaction score (APC3323-AA): -1.82
interaction score (APC7524-AA): -1.49
interaction score (APC9291-AA): -1.88
interaction score (APC3354-AA): -1.67
interaction score (APC2543-AA): -1.57
interaction score (APC3881-AA): -1.74
interaction score (APC542-AA): -1.83
interaction score (APC6088-AA): -1.06
interaction score (APC8516-AA): -1.58
interaction score (APC2556-AA): -1.42

DENQQLKQKIQELEQEIQELKWENQELKQ [4H1804-bN]
interaction score (4H906-bN): -0.241
interaction score (4H1804-bN): 1.58
interaction score (4H850-bN): 0.194
interaction score (4H3414-bN): -0.563
interaction score (4H3817-bN): -0.425
interaction score (4H570-bN): -0.363
interaction score (4H3638-bN): -0.805
interaction score (4H1985-bN): 0.201
interaction score (4H3172-bN): -0.368
interaction score (4H619-bN): -1.34
interaction score (4H3129-bN): 0.0855
interaction score (4H3974-bN): -1.87
interaction score (4H3631-bN): 0.112
interaction score (4H584-bN): 0.249

DEIAALEAEIAALEAENAALEAENAALEG [Q3-AA]
interaction score (Q7-AA): -1.36
interaction score (Q8-AA): -1.09

DEIQELEKKIEELKRENWELEKKIQELKR [4H342-bH]
interaction score (4H491-bH): 1.47
interaction score (4H496-bH): 0.0247
interaction score (4H3632-bH): 1.55
interaction score (4H48-bH): -0.0388
interaction score (4H342-bH): 1.38
